Assay results published in the DeepSol protein solubility set.

Assay: soluble on expression in E. coli; label from the status in PepcDB or PDB records

Sequence | soluble on expression in E. coli
MSSRKGKASAHISYEDENDDLIDEINTFHNKDRKVEKGAIHKRKTFNRPEEVLNVEAEASDSSEDDGSDFDDDDVNDITDNKWGKKRKDFYGTGFVDKDWGGMREEEMEDAQLEEEDALTRQKQIDKSTAAIADLFDDDDEDEEEKEETVEVETVLEFNEENARTKNKKIVKTLEQFEARKRIFDLVVKPLENVIKQIPKCALRSQLVYVAQTYASYLMNTAFLLNLRAKQFSNEKLDDPLVDIHPVVESLKRLEKKITECEDFLHSNSDHLDELKKWAESEPENMEELISKVGDVQLTKKNFGAIMNNNLSTITSSDNTSIHPHFTPMDADEKRKASDKVAKNREYAERRGKKKAKTSKTKNRRKVHAIEKRVKSQIGNVRREMQKYSGETSGIRASTIKSTKLIA | not soluble
GSSHHHHHHSSGRENLYFQGHMARPGMERWRDRLALVTGASGGIGAAVARALVQQGLKVVGCARTVGNIEELAAECKSAGYPGTLIPYRCDLSNEEDILSMFSAIRSQHSGVDICINNAGLARPDTLLSGSTSGWKDMFNVNVLALSICTREAYQSMKERNVDDGHIININSMSGHRVLPLSVTHFYSATKYAVTALTEGLRQELREAQTHIRATCISPGVVETQFAFKLHDKDPEKAAATYEQMKCLKPEDVAEAVIYVLSTPAHIQIGDIQMRPTGS | soluble
MVIHIPVRESNYIEKILLPVMVYFIVNVKQNEWIYTILKEKFFYEEQEECHQILHMAHEILKGRRKGVAQDLTRNAFESYIKSSLNNWLCDPLSFSFSSYIRFRLRTYREMVAKLAEVAIDEYKMEQEYQMFIETLRQQVSSRKSRLSCVHLIFDESFIFYDDKGRRLKQEKLVQYIDEELLKQNDVYIDTKVIAPLLSISPKKIYLYTKEQDHNMIITLRNVFQERVQLHGLHDFERNVKNLKNKGNALDFLSFLEHHHHHH | soluble
PPHVKFIKEKDICSYEEASDPGHFRWYPKGKLMRDLLADYVYNLVVNMGAMPVETPIMYDLGNPAIREHADKFGERQYRFRQGNKELMLRFAACFGQFMMKKDMYLLPRYLPLKLYELSTYSFRYEQRGELVGLKRLRCFTMPDMHTVCLNLEQAMEEFEKQFWECLKTGDDLNLSYSVIFRFTKDFFDEHRDWFFKIAKEYKNKYGKDVILEILPKRKHYWVGKVDIAVIDSLGRPIENPTVQIDVESAKRFDIKVHTNEGEIYPIILHCSPTGSIERVLCGLLEKAA | not soluble
MWQRIRLLQTLVSQKGAATAAAGAASSSPTAAAAAATTAAPPSPAPSVAADNERSFLRNLIPMRVYSSGPPSIYLRHAFLNQDRLIRRFLGALEAVPLPSLPRLLLAEGFQRMLEGDVPQRELRELFEDAEVECRKMLLHMDVSKSGHRRYHDSHADPRDQEMWHAVRHDPLRRLLAHELRAACSHYARLMGVSSSPYVPAAVIVRTIIASDVRTDNFLVKMTLAFERHPRNVETGEPVGEAMPPVVEELMKELLLLERDAFGCFRFDPRGDNHHLVHSLKLADITKTPRSFSVMRDPLMKRYGNYCVECEEVHKGRWNQYKVHCGPEDHRIDPALPLFESVVATDPITGGALNMLVHYDEPICLRHKHSLREEKGNFGHTEVFELAMDVTNRTFWERYFLDR | soluble
MGSDKIHHHHHHYLNTLQRELENAGIESRLVRRFGYTQEAVDWADAVFSAGGDGTFLMASSRVRTKHKPVIGINTDPQGSEGYMCLMRKLPEENLAGALKKLFSGNFEWLNRQRIRITVTGDDGISDAIELHDQQLNRDPATTRWTDNPRSPAREIEECMSLSPPVKKRMISEAVEIPEVEKETVELPVLALNEVFIGESLSSRVSYYEIGINDAQMLKQKSSGITICTGTGSTSWNFNINKLTEQCVQDLMKIVAEHCNLPQIPHGDKNAVSEICTKFNQQLIFDPDRKQLAFSVRDPIFNATFPPTDPRGFADKICIKSRGYDAHLVIDGGISYRFNDGSEAVMEVRDEDTLRTVVFR | not soluble
MGTTLEVLRTGPLALVEDLGRPGLAHMGVTRSGAADRRSHTLANRLVANPGESATIEVTFGGFSARVCGGDVAIAVTGADTDPAVNGIPFGTNSIHHVHDGQVISLGAPHSGLRSYLAVRGGIDVTPVLGSRSYDVMSAIGPSPLRPGDVLPVGEHTDEFPELDQAPVAAIAEDVVELQVVPGPRDDWFVDPDILVRTNWLVTNRSDRVGMRLVGMPLEYRNPDRQLPSEGATRGAIQVPPNGFPVILGPDHPVTGGYPVIGVVTEEDIDKLGQVRPGQTVRLHWAYPRRPFETLESGKETAAAKFERQHMDSSTSAA | soluble
MGSSHHHHHHSSGLVPRGSHMDLSAASHRIPLSDGNSIPIIGLGTYSEPKSTPKGACATSVKVAIDTGYRHIDGAYIYQNEHEVGEAIREKIAEGKVRREDIFYCGKLWATNHVPEMVRPTLERTLRVLQLDYVDLYIIEVPMAFKPGDEIYPRDENGKWLYHKSNLCATWEAMEACKDAGLVKSLGVSNFNRRQLELILNKPGLKHKPVSNQVECHPYFTQPKLLKFCQQHDIVITAYSPLGTSRNPIWVNVSSPPLLKDALLNSLGKRYNKTAAQIVLRFNIQRGVVVIPKSFNLERIKENFQIFDFSLTEEEMKDIEALNKNVRFVELLMWRDHPEYPFHDEY | soluble
MGSDKIHHHHHHMNKKIIEKEILSKVIKKRKEGSNKTNYGRILLICGSQSFGGAAIMASKAVVYSGAGLVTLASDMINRAPFLSSVSEAMFLDYTRTDKLINSIAKSDVILIGSGLEDSDFSFSLLKLVFQNAKTNQLLVLDGTALSMIGKRNLNIPKKPTIIMTPHQGEWQRVSGLSISEQVPVQNYKKMVDLNIDFLVLKSSATEIYALQNPREYKELNIGGPFQAIGGMGDTLAGLIAGFLGQFKNDQISVIQAATYLHSYIARNLSQKQYVTLPTRISEQIPTEMKKIIQTSKY | not soluble
MSDDGAFERDTTSFRHWVGDDVPPAAGRYHLYVSYACPWAHRTLLVRALLGLEDAISVSVVDPVRYDQGWTFDPEKPGCTPDHVFGGTHLRDVYTEADPEYTGRVTVPVLYDTDADTIVNNESEEIMRMLDVAFDDHAARDVDLYPEGYRDEVDRLIEDIYDPINNGVYRAGFADSQRAYDNAVDDLFEALAHYDDVLAEQRYLAGDVLTEADVAMFTTLYRFDEVYHTHFKCNRKRISDYDNLWPYLRELCQLPGVADTLYMEHVKQHYYRSHGHLNPKRLVPTGPNPAFFAPHDRDQLEHHHHHH | soluble
MGSDKIHHHHHHMTAATQAKHTPDDLSVAPRDIRFDLTSAQKGHWLGGDPVGTAVFNALSLTFPDGERMFMDAVKAYRDRLSGKLLEDAKGFIAQEAIHSREHHHLNSLIDRERYPVAEIEETIRGRVKMARERGPMAMLISTIALEHFTAMMAEMHARHRNLFDTTDPEIEKLWRWHAVEETEHKAVAYDVFLEVTKDWSPLKRYMIRCRAMVFVTIMFTRNISRYAARLLEADGYTPKAALKAVKRFVWGDPGIFRRGWKTYFAWYRPGFHPWDQDDRPLVADWMAEFNAAAVRV | not soluble
MRLASMGEEDSTPGRRSKAYSRQGADVRPMKGGHGINLVGTLMAATERGANIVEGVVDFRPTDLRGSLRRGREANLIVFVVDTSGSMAARSRVRAVTGTITSMLNDAYQRRDKVAVIAVNGNKPTLVLNPTNSVEQAQQKLKDMPMGGRTPLAEGLLMAKDLMARELRKEPGRRAILMVMTDGQDTSDAGEAGIATAAETVVKSRLSGNVVIDCEGRLKVRKERAGVLAEMLGGVCVRLRDLNSEHIKMVINA | not soluble
RTYGDGTKPQTDRVVGGLVVEYDITENIMVSAHYDRTKDEGSVDSGAYIVDGKPVRGDKYIWDAQWSKIDNDVENYGIDINAQVTDNVNVKAGYNRQDFKRFDVESYPKFDNYDKDGVIRHKGNERTDNWVFDTAYLDVTTNFSLLGTENTFLVGANYLDYKYDRFMASHAGEDVAAGTTVTRPGTVRSKKYPRREHDTWGIYAQNMMTINDYWQVLAGARYDEKREDSLTENQVSPKLGVIFHPTSNGSIYVQYSESFMPQGEVSNGSRIYINDGEKLDAERGISYEIGTKWELFDQRLFVSGAVFDITLENISLDVESGKDASNQLLHKKTQGGEQVHKGAELMAQGFVTPELSLTASAMYLDAELKKAERFEGNRPADVPEFSASLWSSYRVQDNTNLNLGLIYEGDRYGDAANTFKKDGYARIDMGVSYKHKYDENLDIIARFNVENLFDTDYLAGGGSTNGNQEGASGVVVGEGRNYMATIQFKY | not soluble
